Columns and labels:
[1] = biological target: T1, recombinant cynomolgus monkey B7H3 protein (cynomolgus monkey, UniProt Q7TPB4 26-248 (rat entry)); assay: bio-layer interferometry (ForteBio), antibody loaded on sensor, antigen in solution
T1 construct: also called SINO BIOLOGICAL Catalog No. 90806-C02H-50
T1 chain: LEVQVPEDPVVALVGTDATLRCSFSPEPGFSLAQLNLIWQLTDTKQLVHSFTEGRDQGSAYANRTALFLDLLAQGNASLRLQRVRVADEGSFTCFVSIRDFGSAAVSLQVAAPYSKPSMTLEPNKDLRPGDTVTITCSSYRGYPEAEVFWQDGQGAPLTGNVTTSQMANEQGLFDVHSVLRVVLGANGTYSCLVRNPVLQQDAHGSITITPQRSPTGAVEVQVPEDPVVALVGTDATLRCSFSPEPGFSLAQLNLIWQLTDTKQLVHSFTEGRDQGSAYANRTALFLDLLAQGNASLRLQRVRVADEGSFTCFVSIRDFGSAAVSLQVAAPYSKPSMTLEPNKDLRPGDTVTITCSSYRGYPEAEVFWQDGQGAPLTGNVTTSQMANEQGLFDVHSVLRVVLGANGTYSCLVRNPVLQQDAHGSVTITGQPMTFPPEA
Procedure: (§1) The equilibrium dissociation constant (KD) for binding of the antibodies of the present invention to human B7H3 was determined by bio-layer interferometry (ForteBio). The ForteBio affinity assay was conducted according to the method (Estep, P et al., High throughput solution Based measurement of antibody-antigen affinity and epitope binding. mAbs, 2013.5(2): 270-8) known in the art.
(§2) Briefly, AMQ (Pall, 1506091) (for sample detection) or AHQ (Pall, 1502051) (for positive control detection) sensors were equilibrated offline in an assay buffer for 30 min, and were equilibrated online for 60 s to establish a baseline. The purified antibodies obtained as described above were loaded online onto an AHQ sensor (ForteBio) for the ForteBio affinity assay. The sensor with the loaded antibodies was then exposed to the antigens (including human 4Ig-B7H3, human 2Ig-B7H3 (ACRO, Catalog No. B73-H52E2) and cynomolgus monkey B7H3 (SINO BIOLOGICAL, Catalog No. 90806-C02H-50)) before transferring the sensor to the assay buffer for dissociation rate measurement. The KD values were analyzed using ForteBio analysis software.

[2] = biological target: T2, recombinant human 4Ig-B7H3 protein (human, UniProt Q5ZPR3 29-461); assay: as above
T2 construct: also called human B7H3 protein; SINO BIOLOGICAL Catalog No. 11188-H08H
T2 sequence: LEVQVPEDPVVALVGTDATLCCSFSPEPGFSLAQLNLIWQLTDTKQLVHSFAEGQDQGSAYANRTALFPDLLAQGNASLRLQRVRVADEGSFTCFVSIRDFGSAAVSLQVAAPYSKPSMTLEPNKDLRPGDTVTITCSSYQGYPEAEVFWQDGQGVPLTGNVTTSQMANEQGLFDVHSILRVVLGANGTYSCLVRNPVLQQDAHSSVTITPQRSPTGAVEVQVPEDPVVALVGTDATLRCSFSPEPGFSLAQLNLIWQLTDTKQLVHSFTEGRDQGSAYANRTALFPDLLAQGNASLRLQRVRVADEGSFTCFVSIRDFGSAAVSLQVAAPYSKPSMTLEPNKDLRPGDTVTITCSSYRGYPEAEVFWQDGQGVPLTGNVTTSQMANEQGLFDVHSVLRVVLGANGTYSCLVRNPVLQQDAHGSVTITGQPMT
Procedure: as §1, §2

[3] = biological target: T3, recombinant human 2Ig-B7H3 protein (human, UniProt Q5ZPR3 29-466); assay: as above
T3 construct: Bought soluble recombinant protein; also called ACRO Catalog No. B73-H52E2
T3 sequence: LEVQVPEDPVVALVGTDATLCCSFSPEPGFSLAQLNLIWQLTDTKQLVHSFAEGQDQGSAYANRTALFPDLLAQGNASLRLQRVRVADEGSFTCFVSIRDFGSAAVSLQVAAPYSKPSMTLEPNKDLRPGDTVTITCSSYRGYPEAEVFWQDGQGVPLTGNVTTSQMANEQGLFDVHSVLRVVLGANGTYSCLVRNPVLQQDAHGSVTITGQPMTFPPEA
Procedure: as §1, §2

[4] = biological target: T1, recombinant cynomolgus monkey B7H3 …; assay: bio-layer interferometry (ForteBio), as in Example 3
Procedure: as §2
(§3) The binding affinity of the humanized antibodies obtained in Example 4 for the antigens (human B7H3 and cynomolgus monkey B7H3) was determined by ForteBio assay as described in Example 3, which was expressed as an equilibrium dissociation constant (KD).

[5] = biological target: T2, recombinant human 4Ig-B7H3 protein; assay: as above
Procedure: as §2, §3

[6] = biological target: T3, recombinant human 2Ig-B7H3 protein; assay: as above
Procedure: as §2, §3

[7] = biological target: T4, human 2Ig-B7H3 overexpressed on CHO-S cells (CHOS-hB7H3-2Ig) (human, UniProt Q5ZPR3 29-534); assay: FACS (flow cytometry, MFI) on CHO-S cells overexpressing human 2Ig-B7H3, PE-conjugated anti-human Fc detection; panel 'Cell-level affinity of CHOS hB7H3(2Ig)'
T4 construct: also called cells overexpressing human 2Ig-B7H3
T4 sequence: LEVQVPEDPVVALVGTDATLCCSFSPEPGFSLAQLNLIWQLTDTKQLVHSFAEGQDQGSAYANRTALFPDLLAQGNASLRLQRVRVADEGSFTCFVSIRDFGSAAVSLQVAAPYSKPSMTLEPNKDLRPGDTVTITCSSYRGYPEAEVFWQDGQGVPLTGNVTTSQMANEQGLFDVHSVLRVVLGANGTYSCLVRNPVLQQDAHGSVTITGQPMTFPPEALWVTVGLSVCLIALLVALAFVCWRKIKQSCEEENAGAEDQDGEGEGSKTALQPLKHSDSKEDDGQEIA
Procedure: (§4) 1) CHOS-hB7H3-4Ig, CHOS-hB7H3-2Ig, and CHOS-cyno B7H3 cells were diluted with a PBS solution to 2×10⁶ cells/mL, and added to a U-bottom 96-well plate at 100 μL/well. Three-fold serially diluted antibodies were added.
(§5) 2) The above mixture was incubated on ice for 30 min. The cell suspension was centrifuged at 400 g for 5 min to remove the supernatant, and the cells were washed with a PBS solution to remove the unbound antibodies. 100 μL of the solution of PE-conjugated anti-human Fc antibody (SouthernBiotech) diluted at a ratio of 1:200 was added to each well, and the cells were incubated in the dark on ice for 30 min. Then the cell suspension was centrifuged at 400 g for 5 min to remove the supernatant. The cells were washed with PBS twice to remove the unbound PE-conjugated anti-human Fc antibody. Then the cells were resuspended with 100 μL of PBS, and the binding of the antibody to cells was assayed by FACS.

[8] = biological target: T5, human 4Ig-B7H3 overexpressed on CHO-S cells (CHOS-hB7H3-4Ig) (human, UniProt Q5ZPR3 29-534); assay: FACS (flow cytometry, MFI) on CHO-S cells overexpressing human 4Ig-B7H3, PE-conjugated anti-human Fc detection; panel 'Cell-level affinity of CHOS hB7H3(4Ig)'
T5 construct: The entry includes the signal peptide; also called CHO-hB7H3-4Ig; cells overexpressing human 4Ig-B7H3
T5 sequence: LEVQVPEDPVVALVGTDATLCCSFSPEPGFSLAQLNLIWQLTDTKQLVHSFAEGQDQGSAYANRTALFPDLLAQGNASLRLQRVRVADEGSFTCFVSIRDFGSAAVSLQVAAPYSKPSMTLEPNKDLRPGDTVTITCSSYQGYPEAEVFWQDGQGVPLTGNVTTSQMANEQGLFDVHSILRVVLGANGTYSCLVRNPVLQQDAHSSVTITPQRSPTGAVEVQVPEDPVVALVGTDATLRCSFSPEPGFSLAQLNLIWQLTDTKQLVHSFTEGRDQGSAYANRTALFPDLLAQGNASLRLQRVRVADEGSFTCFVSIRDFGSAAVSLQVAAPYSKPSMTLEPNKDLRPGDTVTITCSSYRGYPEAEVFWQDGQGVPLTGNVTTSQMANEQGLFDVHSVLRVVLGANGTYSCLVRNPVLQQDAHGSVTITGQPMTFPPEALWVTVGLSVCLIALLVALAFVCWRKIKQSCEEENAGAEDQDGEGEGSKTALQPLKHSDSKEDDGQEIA
Procedure: as §4, §5

[9] = biological target: T1, recombinant cynomolgus monkey B7H3 …; assay: bio-layer interferometry (ForteBio), hybridoma antibody
[10] = biological target: T2, recombinant human 4Ig-B7H3 protein; assay: as above
[11] = biological target: T6, cynomolgus monkey B7H3 expressed on CHO cells (CHO-cynoB7H3) (cynomolgus monkey, UniProt Q7TPB4 26-316 (rat entry)); assay: flow cytometry, hybridoma supernatant on CHO-cynoB7H3 cells
T6 chain: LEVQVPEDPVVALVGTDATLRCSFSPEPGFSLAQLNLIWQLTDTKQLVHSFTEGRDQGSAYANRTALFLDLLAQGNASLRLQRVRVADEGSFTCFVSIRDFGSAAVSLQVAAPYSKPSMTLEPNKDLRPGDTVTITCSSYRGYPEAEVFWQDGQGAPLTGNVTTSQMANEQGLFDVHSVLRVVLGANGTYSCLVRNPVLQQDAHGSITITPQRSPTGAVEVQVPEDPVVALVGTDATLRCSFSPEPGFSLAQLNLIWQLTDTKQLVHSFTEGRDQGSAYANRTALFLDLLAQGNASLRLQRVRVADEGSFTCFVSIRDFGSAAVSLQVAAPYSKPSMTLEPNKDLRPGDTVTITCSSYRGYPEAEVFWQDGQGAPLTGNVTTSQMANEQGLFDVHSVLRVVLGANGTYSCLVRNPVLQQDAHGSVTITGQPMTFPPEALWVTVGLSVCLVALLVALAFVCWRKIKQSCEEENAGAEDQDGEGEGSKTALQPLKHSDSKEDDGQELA

B1: MGA271 (positive control antibody) (antibody, V domains shown)
VH: EVQLVESGGGLVQPGGSLRLSCAASGFTFSSFGMHWVRQAPGKGLEWVAYISSDSSAIYYADTVKGRFTISRDNAKNSLYLQMNSLRDEDTAVYYCGRGRENIYYGSRLDYWGQGTTVTVSS
VL: DIQLTQSPSFLSASVGDRVTITCKASQNVDTNVAWYQQKPGKAPKALIYSASYRYSGVPSRFSGSGSGTDFTLTISSLQPEDFATYYCQQYNNYPFTFGQGTKLEIK
notes: also called Enoblituzumab
In the case of B1, the Kd [1] is reported as 1.66 nM, the Kd [2] is reported as 0.636 nM and the Kd [3] is reported as 187 nM. For the same binder, the Kd [4] was 1.87 nM, the Kd [5] was 0.939 nM and the Kd [6] was 782 nM. The EC50 [7] was 100 nM and the EC50 [8] was 8.54 nM.

B2: Hz20G5 humanized antibody (antibody, human IgG1, kappa, V domains shown)
VH: QVQLVQSGAEVKKPGASVKVSCKASGYTFTEYIMHWVRQAPGQRLEWMGGINPGTGGTTYNQKFKDRVTITVDTSASTAYMELSSLRSEDTAVYYCTRRTPPWHFAVWGQGTLVTVSS
VL: DIQLTQSPSFLSASVGDRVTITCSASSSVSYIHWYQQKPGKAPKRWIYDTSRLASGVPSRFSGSGSGTEFTLTISSLQPEDFATYYCQQWSSAPLTFGGGTKVEIKR
B2 showed a Kd [5] of 0.371 nM, a Kd [6] of 6.3 nM and an EC50 [7] of 7.54 nM. The EC50 [8] was 6.28 nM.

B3: Ch20G5 chimeric antibody (antibody, human IgG1, kappa, V domains shown)
VH: EVQLQQSVPELVKPGASVKISCKTSGYTFTEYIMHWVKQSHGKNLEWIGGINPNNGGTTYNQKFKDKATLTVDKSSSTAYMELHNLTSEDSAVYYCTRRTPPWHFAVWGAGTSLTVSS
VL: DIVLTQSPTIMSASPGEKVTMTCSASSSVSYIHWYQQKSGTSPKRWIFDTSRLASGVPARFSGSGSGTSYSLTISSMEAEDAATYYCQQWSSAPLTFGTGTTLELKR
With B3 the Kd [1] was 0.713 nM, the Kd [2] was 0.236 nM and the Kd [3] was 3.18 nM.

B4: Hz19A2 humanized antibody (antibody, human IgG1, kappa, V domains shown)
VH: QVQLVQSGAEVKKPGASVKVSCKASGYIFTSYWIHWVRQAPGQGLEWMGRIYPGTESTFYNEKFKGRVTMTRDTSTSTVYMELSSLRSEDTAVYYCHFITASDWYFDVWGQGTLVTVSS
VL: EIVLTQSPATLSLSPGERATLSCSVSSSVQSNYLYWYQQKPGQAPRLLIYGTSNLASGIPARFSGSGSGTDFTLTISSLEPEDFAVYYCYQWSSYPFTFGQGTKLEIKR
Work on B4 yielded a Kd [4] of 0.968 nM, a Kd [5] of 0.601 nM and a Kd [6] of 10.4 nM. The EC50 [7] was 138 nM and the EC50 [8] was 8.51 nM.

B5: Ch19A2 chimeric antibody (antibody, human IgG1, kappa, V domains shown)
VH: EVQLQQSGAELVRPGASVKLSCKTSGYIFTSYWIHWIKQRSGQGLEWIARIYPGTDSTFYNEKFKGRATLTADKSSSTVYLQLNSLKSEDSAVYFCHFITASDWYFDVWGAGTTVTVSS
VL: DIVLTQSPAIMSASPGEKVTLTCSVSSSVNSNYLYWYQQKPGSSPKLWIYGTSNLASGVPARFSGSGSGPSYSLTISSMEAEDAASYFCYQWSSYPFTFGSGTKLEIKR
With B5 the Kd [1] was 0.59 nM, the Kd [2] was 0.362 nM and the Kd [3] was 5.74 nM.

B6: 19A2 (hybridoma clone antibody) (antibody, V domains shown)
VH: B5 VH
VL: DIVLTQSPAIMSASPGEKVTLTCSVSSSVNSNYLYWYQQKPGSSPKLWIYGTSNLASGVPARFSGSGSGPSYSLTISSMEAEDAASYFCYQWSSYPFTFGSGTKLEIK
With B6 the Kd [9] was 0.977 nM, the Kd [10] was 0.987 nM and the binding result [11] was “binds”.

— US20240043540A1 (Innovent, published 2024)
